In patent US20010039016, “Use of expression profiling for identifying molecular markers useful for diagnosis of metastatic cancer” (published 2001):

T1: Cdx2 (Mus musculus, UniProt P43241 P43241:1-311)
T1 sequence: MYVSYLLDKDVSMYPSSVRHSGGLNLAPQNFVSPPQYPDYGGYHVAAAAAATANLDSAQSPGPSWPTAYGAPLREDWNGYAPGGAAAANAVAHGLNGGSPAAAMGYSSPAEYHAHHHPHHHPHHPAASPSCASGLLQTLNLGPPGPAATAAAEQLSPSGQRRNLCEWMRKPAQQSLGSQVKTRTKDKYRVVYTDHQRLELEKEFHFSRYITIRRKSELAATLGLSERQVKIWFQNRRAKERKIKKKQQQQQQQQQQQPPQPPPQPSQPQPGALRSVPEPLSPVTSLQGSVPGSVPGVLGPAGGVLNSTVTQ


Experiments:
Cdx2 [1] = target: T1, Cdx2; test: EMSA; supershifted by anti-Cdx2, 10 mM Tris pH 7.5, 50 mM NaCl, 2.5 mM MgCl2, room temp; details: tags: pRc/CMV-Cdx2, TNT Quick-coupled (Promega); label: 32P 5'-end
Method: (§1) Electromobility Shift Assay (EMSA). Protein-DNA binding reactions performed in the same buffer as the DNase I protection assay (4% glycerol, 10 mM Tris-HCl (pH 7.5) 50 mM NaCl, 2.5 mM MgCl₂ and 5 mM DTT) included […] of Poly(dI.dC)-Poly(dI.dC) (Amersham Pharmacia Biotech, Piscataway, N.J.) and 30 kcpm of probe. Reactions were initiated by the addition of nuclear extract and incubated for 30 min at room temp to produce protein complexes which were separated on a 6% non-denaturing, polyacrylamide (37.5:1) gel in 0.5× TBE running buffer. Gels were dried prior to visualization of radiolabelled complexes by autoradiography. In competition assays, unlabelled competitor was added to the reaction mixtures at concentrations ranging from 25-fold to 250-fold molar excess of the labeled probe prior to the addition of the nuclear extract. Supershift assays were performed by adding […] of murine Cdx2 antibody after an initial incubation period of 30 min; incubation was then continued for an additional 30 min. Transcribed and translated murine Cdx2 protein was generated in vitro using linearized pRc/CMV-Cdx2 expression vector as a template for the TNT-Quickcoupled Kit (Promega).
(§2) Cdx2 binds specifically to the FP1 probe. To determine whether FP1 is a binding site for Cdx2, labeled FP1 was incubated with in vitro transcribed and translated murine Cdx2. […]

Cdx2 [2] = target: T1, Cdx2; test: EMSA; no specific complex formed; details: tags: pRc/CMV-Cdx2, TNT Quick-coupled (Promega); label: 32P 5'-end
Method: as §1, §2

Row | Binder | binding result (Cdx2 [1]) | binding result (Cdx2 [2])
1 | FP1 (dsDNA) DNA 1: CAGCTAATCTCTCTGTTTATAGCTCTGACCTTTC DNA 2: GAAAGGTCAGAGCTATAAACAGAGAGATTAGCTG | binds | –
2 | FP1-CCC (dsDNA) DNA 1: CAGCTAATCTCTCTGCCCATAGCTCTGACCTTTC DNA 2: GAAAGGTCAGAGCTATGGGCAGAGAGATTAGCTG | – | no binding
